This is an account of results in publication PMC12661447, “Cyanophycinase is required for heterotrophy in cyanobacteria” (The Journal of Biological Chemistry, 2025).

The assay has as its target T1, cyanophycinase (CphB) (Synechocystis sp. PCC 6803 (endogenous …, UniProt P73832 1-271)).
T1 sequence (looked up): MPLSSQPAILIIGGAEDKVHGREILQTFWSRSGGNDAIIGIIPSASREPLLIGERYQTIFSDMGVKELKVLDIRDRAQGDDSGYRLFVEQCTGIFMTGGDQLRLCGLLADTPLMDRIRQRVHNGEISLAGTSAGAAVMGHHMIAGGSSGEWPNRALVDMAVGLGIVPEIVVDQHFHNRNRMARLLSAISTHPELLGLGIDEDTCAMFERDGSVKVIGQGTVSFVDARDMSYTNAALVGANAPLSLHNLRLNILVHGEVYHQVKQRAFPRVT
Description: cell-based or functional assay.

B1: FLAG-tagged variant of ArgD (acetylornithine aminotransferase) (enzyme, Synechocystis sp. PCC 6803, UniProt P73133 1-429, looked up)
chain: MTYSPVVESVEAQAFAVTDLSPAAEFKTADFDTYVMNTYGRFPIAIARGQGSTLWDTEGKSYLDFVAGIATCTLGHAHPALVRAVSDQIQKLHHVSNLYYIPEQGELAKWIVEHSCADRVFFCNSGAEANEAAIKLVRKYAHTVLDFLEQPVILTAKASFHGRTLATITATGQPKYQQYFDPLVPGFDYVPYNDIRSLENKVADLDEGNSRVAAIFLEPLQGEGGVRPGDLAYFKRVREICDQNDILLVFDEVQVGVGRTGKLWGYEHLGVEPDIFTSAKGLAGGVPIGAMMCKKFCDVFEPGNHASTFGGNPLACAAGLAVLKTIEGDRLLDNVQARGEQLRSGLAEIKNQYPTLFTEVRGWGLINGLEISAESSLTSVEIVKAAMEQGLLLAPAGPKVLRFVPPLVVTEAEIAQAVEILRQAIATLV
For B1, the “in vitro activity of recombinant CphB-His (2 μM; degradation of cyanophycin, β-Asp-Arg dipeptide at 2 min by LC-HRMS) with recombinant ArgD-His added in a 1:1 ratio against without ArgD (BSA control)” value was about 2 fold.
